Experimental data from patent US10464978B2, “Peptides and combination of peptides for use in immunotherapy against ovarian cancer and other cancers” (immatics biotechnologies GmbH, priority 2015, dated 2019).

target: HLA-A*02:01 (Homo sapiens, UniProt P04439, D140Y/D185E/D98H/E176V/E277Q/G131W/G231S/I119V/I121R/I166T/I218V/L300P/L318F/N151K/N90K/P208A/P217A/Q86G/Q94H/R138H/R169H/T345S); test: MHC binding assay: UV-ligand exchange with beta2m ELISA (peptide exchange yield); settings: binding to HLA-A*02:01
Outline: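 Values give exchange yield, measured by β2m ELISA: 100-fold-diluted monomers bound to streptavidin plates (1h, 37° C), probed with HRP anti-β2m at 2 ug/ml and read at 450 nm after TMB. Monomers came from UV-triggered cleavage of a photolabile peptide and exchange for the test peptide.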

Peptide exchange (MHC class I binding score, peptide exchange yield)	Substance
“+++” (≥50 = +++)	370 (SLLQDLVSV; listed as Homo sapiens) [compound 370]
“++++” (≥75% = ++++)	371 (FLQAHLHTA; listed as Homo sapiens) [compound 371]
“++” (≥20% = ++)	372 (TMLLNIPLV; listed as Homo sapiens) [compound 372]
“++” (≥20% = ++)	373 (SLLEDKGLAEV; listed as Homo sapiens) [compound 373]
“++” (≥20% = ++)	374 (FLLQQHLISA; listed as Homo sapiens) [compound 374]
“++” (≥20% = ++)	375 (SLTETIEGV; listed as Homo sapiens) [compound 375]
“++” (≥20% = ++)	376 (AMFESSQNVLL; listed as Homo sapiens) [compound 376]
“++” (≥20% = ++)	377 (FLLDSSASV; listed as Homo sapiens) [compound 377]
“+++” (≥50 = +++)	378 (ALGYFVPYV; listed as Homo sapiens) [compound 378]
“++” (≥20% = ++)	379 (IMEGTLTRV; listed as Homo sapiens) [compound 379]
“++” (≥20% = ++)	380 (TLIEDEIATI; listed as Homo sapiens) [compound 380]
“++” (≥20% = ++)	381 (FIDEAYVEV; listed as Homo sapiens) [compound 381]
“++” (≥20% = ++)	382 (ALQNYIKEA; listed as Homo sapiens) [compound 382]
“+++” (≥50 = +++)	383 (ALLELENSVTL; listed as Homo sapiens) [compound 383]
“+++” (≥50 = +++)	384 (ILFANPNIFV; listed as Homo sapiens) [compound 384]
“++” (≥20% = ++)	385 (SLLEQGLVEA; listed as Homo sapiens) [compound 385]
“+++” (≥50 = +++)	386 (ILFRYPLTI; listed as Homo sapiens) [compound 386]
“++++” (≥75% = ++++)	387 (ALFQATAEV; listed as Homo sapiens) [compound 387]
“+++” (≥50 = +++)	388 (SLTIDGIRYV; listed as Homo sapiens) [compound 388]
“++” (≥20% = ++)	389 (LLADVTHLL; listed as Homo sapiens) [compound 389]
“+++” (≥50 = +++)	390 (ALFMKQIYL; listed as Homo sapiens) [compound 390]
“+++” (≥50 = +++)	391 (YVYPQRLNFV; listed as Homo sapiens) [compound 391]
“++” (≥20% = ++)	392 (ALLHPQGFEV; listed as Homo sapiens) [compound 392]
“++” (≥20% = ++)	393 (GLLDTQTSQVLTA; listed as Homo sapiens) [compound 393]
“+++” (≥50 = +++)	394 (LLAVIGGLVYL; listed as Homo sapiens) [compound 394]
“++++” (≥75% = ++++)	395 (ALALGGIAVV; listed as Homo sapiens) [compound 395]

Continued, substance first:

Substance	Peptide exchange (MHC class I binding score, peptide exchange yield)
327 (GLAPFTEGISFV; listed as Homo sapiens) [compound 327]	“+++” (≥50 = +++)
328 (ALNDQVFEI; listed as Homo sapiens) [compound 328]	“+++” (≥50 = +++)
329 (FLVTLNNVEV; listed as Homo sapiens) [compound 329]	“++++” (≥75% = ++++)
330 (QLALKVEGV; listed as Homo sapiens) [compound 330]	“+++” (≥50 = +++)
331 (KVDTVWVNV; listed as Homo sapiens) [compound 331]	“+++” (≥50 = +++)
332 (YLISELEAA; listed as Homo sapiens) [compound 332]	“+++” (≥50 = +++)
333 (FLPDANSSV; listed as Homo sapiens) [compound 333]	“++” (≥20% = ++)
334 (TLTKVLVAL; listed as Homo sapiens) [compound 334]	“+++” (≥50 = +++)
335 (YSLSSVVTV; listed as Homo sapiens) [compound 335]	“+++” (≥50 = +++)
336 (ILLTAIVQV; listed as Homo sapiens) [compound 336]	“+++” (≥50 = +++)
337 (HLLSELEAAPYL; listed as Homo sapiens) [compound 337]	“++++” (≥75% = ++++)
339 (GLWEIENNPTVKA; listed as Homo sapiens) [compound 339]	“++++” (≥75% = ++++)
340 (ALLSMTFPL; listed as Homo sapiens) [compound 340]	“++++” (≥75% = ++++)
341 (SQIALNEKLVNL; listed as Homo sapiens) [compound 341]	“+++” (≥50 = +++)
342 (HIYDKVMTV; listed as Homo sapiens) [compound 342]	“+++” (≥50 = +++)
343 (SLLEVNEESTV; listed as Homo sapiens) [compound 343]	“+++” (≥50 = +++)
344 (YLQDQHLLLTV; listed as Homo sapiens) [compound 344]	“+++” (≥50 = +++)
345 (VIWKALIHL; listed as Homo sapiens) [compound 345]	“+++” (≥50 = +++)
346 (LLDSKVPSV; listed as Homo sapiens) [compound 346]	“+++” (≥50 = +++)
347 (SLFKHDPAAWEA; listed as Homo sapiens) [compound 347]	“++++” (≥75% = ++++)

Substance	Peptide exchange (MHC class I binding score, peptide exchange yield)
348 (ILLDVKTRL; listed as Homo sapiens) [compound 348]	“++++” (≥75% = ++++)
349 (SLTEYLQNV; listed as Homo sapiens) [compound 349]	“++++” (≥75% = ++++)
350 (ALLDVTHSELTV; listed as Homo sapiens) [compound 350]	“+++” (≥50 = +++)
351 (SLIPNLRNV; listed as Homo sapiens) [compound 351]	“+++” (≥50 = +++)
352 (SLLELLHIYV; listed as Homo sapiens) [compound 352]	“+++” (≥50 = +++)
353 (YLFEMDSSL; listed as Homo sapiens) [compound 353]	“++” (≥20% = ++)
354 (LILEGVDTV; listed as Homo sapiens) [compound 354]	“++” (≥20% = ++)
355 (SIQQSIERLLV; listed as Homo sapiens) [compound 355]	“++” (≥20% = ++)
356 (KLLGKLPEL; listed as Homo sapiens) [compound 356]	“+++” (≥50 = +++)
357 (SMHDLVLQV; listed as Homo sapiens) [compound 357]	“+++” (≥50 = +++)
358 (ALDEYTSEL; listed as Homo sapiens) [compound 358]	“++++” (≥75% = ++++)
359 (YLLPESVDL; listed as Homo sapiens) [compound 359]	“+++” (≥50 = +++)
361 (ALYELEGTTV; listed as Homo sapiens) [compound 361]	“+++” (≥50 = +++)
362 (TLYGLSVLL; listed as Homo sapiens) [compound 362]	“+++” (≥50 = +++)
363 (KVLDVSDLESV; listed as Homo sapiens) [compound 363]	“++” (≥20% = ++)
364 (LLQNEQFEL; listed as Homo sapiens) [compound 364]	“+++” (≥50 = +++)
365 (YVIDQGETDVYV; listed as Homo sapiens) [compound 365]	“+++” (≥50 = +++)
366 (RLLDMGETDLML; listed as Homo sapiens) [compound 366]	“+++” (≥50 = +++)
367 (SLQNHNHQL; listed as Homo sapiens) [compound 367]	“+++” (≥50 = +++)
369 (GLFPEHLIDV; listed as Homo sapiens) [compound 369]	“+++” (≥50 = +++)
